Source: IntAct's records for PubMed 29892012

B1: Isoform 2 of Synaptoporin (Homo sapiens), Q8TBG9-2 (parent)
chain: MDPVSQLASAGTFRVLKEPLAFLRALELLFAIFAFATCGGYSGGLRLSVDCVNKTESNLSIDIAFAYPFRLHQVTFEVPTCEGKERQKLALIGDSSSSAEFFVTVAVFAFLYSLAATVVYIFFQNKYRENNRGPLIDFIVTVVFSFLWLVGSSAWAKGLSDVKVATDPKEVLLLMSACKQPSNKCMAIHSPVMSSLNTSVVFGFLNFILWAGNIWFVFKETGWHSSGQRYLSDPMEKHSSSYNQGGYNQDSYGSSSGYSQQASLGPTSDEFGQQPTGPTSFTNQI
B2: Acetylcholine receptor subunit gamma (Homo sapiens), P07510 (parent)
chain: MHGGQGPLLLLLLLAVCLGAQGRNQEERLLADLMQNYDPNLRPAERDSDVVNVSLKLTLTNLISLNEREEALTTNVWIEMQWCDYRLRWDPRDYEGLWVLRVPSTMVWRPDIVLENNVDGVFEVALYCNVLVSPDGCIYWLPPAIFRSACSISVTYFPFDWQNCSLIFQSQTYSTNEIDLQLSQEDGQTIEWIFIDPEAFTENGEWAIQHRPAKMLLDPAAPAQEAGHQKVVFYLLIQRKPLFYVINIIAPCVLISSVAILIHFLPAKAGGQKCTVAINVLLAQTVFLFLVAKKVPETSQAVPLISKYLTFLLVVTILIVVNAVVVLNVSLRSPHTHSMARGVRKVFLRLLPQLLRMHVRPLAPAAVQDTQSRLQNGSSGWSITTGEEVALCLPRSELLFQQWQRQGLVAAALEKLEKGPELGLSQFCGSLKQAAPAIQACVEACNLIACARHQQSHFDNGNEEWFLVGRVLDRVCFLAMLSLFICGTAGIFLMAHYNRVPALPFPGDPRPYLPSPD
B3: Abl interactor 2 (Homo sapiens), Q9NYB9 (parent)
chain: MAELQMLLEEEIPGGRRALFDSYTNLERVADYCENNYIQSADKQRALEETKAYTTQSLASVAYLINTLANNVLQMLDIQASQLRRMESSINHISQTVDIHKEKVARREIGILTTNKNTSRTHKIIAPANLERPVRYIRKPIDYTILDDIGHGVKWLLRFKVSTQNMKMGGLPRTTPPTQKPPSPPMSGKGTLGRHSPYRTLEPVRPPVVPNDYVPSPTRNMAPSQQSPVRTASVNQRNRTYSSSGSSGGSHPSSRSSSRENSGSGSVGVPIAVPTPSPPSVFPAPAGSAGTPPLPATSASAPAPLVPATVPSSTAPNAAAGGAPNLADGFTSPTPPVVSSTPPTGHPVQFYSMNRPASRHTPPTIGGSLPYRRPPSITSQTSLQNQMNGGPFYSQNPVSDTPPPPPPVEEPVFDESPPPPPPPEDYEEEEAAVVEYSDPYAEEDPPWAPRSYLEKVVAIYDYTKDKEDELSFQEGAIIYVIKKNDDGWYEGVMNGVTGLFPGNYVESIMHYSE
partner: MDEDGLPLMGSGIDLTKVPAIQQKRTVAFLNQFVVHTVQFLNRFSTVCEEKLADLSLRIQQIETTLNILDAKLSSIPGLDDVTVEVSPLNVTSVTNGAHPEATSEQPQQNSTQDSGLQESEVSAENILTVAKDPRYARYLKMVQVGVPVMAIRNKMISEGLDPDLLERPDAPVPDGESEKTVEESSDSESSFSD
B4: E3 ubiquitin-protein ligase LNX (Homo sapiens), Q8TBB1 (parent)
chain: MNQPESANDPEPLCAVCGQAHSLEENHFYSYPEEVDDDLICHICLQALLDPLDTPCGHTYCTLCLTNFLVEKDFCPMDRKPLVLQHCKKSSILVNKLLNKLLVTCPFREHCTQVLQRCDLEHHFQTSCKGASHYGLTKDRKRRSQDGCPDGCASLTATAPSPEVSAAATISLMTDEPGLDNPAYVSSAEDGQPAISPVDSGRSNRTRARPFERSTIRSRSFKKINRALSVLRRTKSGSAVANHADQGRENSENTTAPEVFPRLYHLIPDGEITSIKINRVDPSESLSIRLVGGSETPLVHIIIQHIYRDGVIARDGRLLPGDIILKVNGMDISNVPHNYAVRLLRQPCQVLWLTVMREQKFRSRNNGQAPDAYRPRDDSFHVILNKSSPEEQLGIKLVRKVDEPGVFIFNVLDGGVAYRHGQLEENDRVLAINGHDLRYGSPESAAHLIQASERRVHLVVSRQVRQRSPDIFQEAGWNSNGSWSPGPGERSNTPKPLHPTITCHEKVVNIQKDPGESLGMTVAGGASHREWDLPIYVISVEPGGVISRDGRIKTGDILLNVDGVELTEVSRSEAVALLKRTSSSIVLKALEVKEYEPQEDCSSPAALDSNHNMAPPSDWSPSWVMWLELPRCLYNCKDIVLRRNTAGSLGFCIVGGYEEYNGNKPFFIKSIVEGTPAYNDGRIRCGDILLAVNGRSTSGMIHACLARLLKELKGRITLTIVSWPGTFL
partner: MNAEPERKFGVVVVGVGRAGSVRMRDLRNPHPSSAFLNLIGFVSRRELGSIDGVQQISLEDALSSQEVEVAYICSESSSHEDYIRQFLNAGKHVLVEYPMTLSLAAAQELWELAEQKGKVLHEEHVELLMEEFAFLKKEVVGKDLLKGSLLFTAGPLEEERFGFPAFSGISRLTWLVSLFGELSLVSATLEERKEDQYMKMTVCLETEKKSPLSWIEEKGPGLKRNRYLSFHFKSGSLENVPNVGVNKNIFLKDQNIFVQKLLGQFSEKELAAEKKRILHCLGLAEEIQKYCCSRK
B5: Acetylcholine receptor subunit gamma (Homo sapiens), P07510 (parent)
chain: B2 chain
partner: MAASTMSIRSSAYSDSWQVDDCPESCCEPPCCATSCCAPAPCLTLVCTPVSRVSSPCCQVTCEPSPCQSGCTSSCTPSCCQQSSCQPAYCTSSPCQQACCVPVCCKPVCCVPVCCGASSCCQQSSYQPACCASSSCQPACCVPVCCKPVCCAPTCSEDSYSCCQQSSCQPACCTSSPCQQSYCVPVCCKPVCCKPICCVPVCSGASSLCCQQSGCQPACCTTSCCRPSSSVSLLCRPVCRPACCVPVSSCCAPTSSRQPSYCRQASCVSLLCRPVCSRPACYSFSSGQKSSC
B6: RNA-binding protein 3 (Homo sapiens), P98179 (parent)
chain: MSSEEGKLFVGGLNFNTDEQALEDHFSSFGPISEVVVVKDRETQRSRGFGFITFTNPEHASVAMRAMNGESLDGRQIRVDHAGKSARGTRGGGFGAHGRGRSYSRGGGDQGYGSGRYYDSRPGGYGYGYGRSRDYNGRNQGGYDRYSGGNYRDNYDN

Variants of: B1
Details: with creb3_human CREB3, O43889
Chain of creb3_human CREB3, O43889 (O43889 whole entry): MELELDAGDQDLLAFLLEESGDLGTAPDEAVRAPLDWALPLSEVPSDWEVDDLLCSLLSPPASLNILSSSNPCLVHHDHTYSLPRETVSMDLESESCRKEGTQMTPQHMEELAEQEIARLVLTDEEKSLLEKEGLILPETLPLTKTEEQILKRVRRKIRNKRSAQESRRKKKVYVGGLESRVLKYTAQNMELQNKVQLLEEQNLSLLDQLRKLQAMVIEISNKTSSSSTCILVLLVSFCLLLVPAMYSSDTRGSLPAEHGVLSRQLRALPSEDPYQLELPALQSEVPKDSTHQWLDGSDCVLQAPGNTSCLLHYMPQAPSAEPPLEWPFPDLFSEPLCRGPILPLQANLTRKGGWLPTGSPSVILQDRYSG

Row | effect of a mutation on the interaction | Variant
1 | with no effect | A115P

Variants of: B2
Details: with kr108_human KRTAP10-8, P60410
Chain of kr108_human KRTAP10-8, P60410 (P60410 whole entry): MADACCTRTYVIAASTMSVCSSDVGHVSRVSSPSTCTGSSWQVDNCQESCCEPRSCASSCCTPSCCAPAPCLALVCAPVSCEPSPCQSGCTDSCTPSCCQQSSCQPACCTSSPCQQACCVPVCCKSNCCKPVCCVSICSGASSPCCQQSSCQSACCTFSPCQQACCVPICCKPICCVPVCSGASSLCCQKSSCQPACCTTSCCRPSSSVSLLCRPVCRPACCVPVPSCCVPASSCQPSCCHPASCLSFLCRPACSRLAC

Row | effect of a mutation on the interaction | Variant
2 | with no effect | I448T

Variants of: B2
Details: with kr103_human KRTAP10-3, P60369
Chain of kr103_human KRTAP10-3, P60369 (P60369 whole entry): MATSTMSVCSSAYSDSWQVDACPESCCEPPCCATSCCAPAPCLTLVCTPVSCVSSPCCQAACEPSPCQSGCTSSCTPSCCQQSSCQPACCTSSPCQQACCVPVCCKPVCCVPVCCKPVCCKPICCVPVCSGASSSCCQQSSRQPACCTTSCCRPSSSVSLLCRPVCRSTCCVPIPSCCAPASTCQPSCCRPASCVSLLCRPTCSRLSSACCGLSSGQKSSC

Row | effect of a mutation on the interaction | Variant
3 | with no effect | I448T

Variants of: B2
Details: with k1h1_human KRT31, Q15323
Chain of k1h1_human KRT31, Q15323 (Q15323 whole entry): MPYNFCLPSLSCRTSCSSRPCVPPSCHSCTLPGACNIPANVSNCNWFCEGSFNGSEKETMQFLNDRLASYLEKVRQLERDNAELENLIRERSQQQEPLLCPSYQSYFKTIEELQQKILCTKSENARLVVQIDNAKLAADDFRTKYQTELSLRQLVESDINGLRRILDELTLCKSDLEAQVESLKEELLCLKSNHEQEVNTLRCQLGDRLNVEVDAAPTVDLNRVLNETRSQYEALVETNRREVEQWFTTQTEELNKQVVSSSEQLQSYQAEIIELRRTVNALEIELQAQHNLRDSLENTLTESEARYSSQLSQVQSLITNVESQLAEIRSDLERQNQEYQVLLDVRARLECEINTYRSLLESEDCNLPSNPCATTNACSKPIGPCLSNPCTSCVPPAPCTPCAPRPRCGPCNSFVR

Row | effect of a mutation on the interaction | Variant
4 | with no effect | I448T

Variants of: B2
Details: with nt2na_human NOTCH2NLA

Row | effect of a mutation on the interaction | Variant
5 | with no effect | I448T

Variants of: B3
Details: with wasc3_human WASHC3, Q9Y3C0

Row | effect of a mutation on the interaction | Variant
6 | with no effect | R373C

Variants of: B3
Details: with wasc3_human WASHC3, Q9Y3C0
Remark: another data set of the same source

Row | effect of a mutation on the interaction | Variant
7 | with no effect | E202K

Variants of: B4
Details: with biea_human BLVRA

Row | effect of a mutation on the interaction | Variant
8 | disrupting interaction strength | E295K

Variants of: B5
Details: with kr109_human KRTAP10-9, P60411

Row | effect of a mutation on the interaction | Variant
9 | with no effect | I448T

Variants of: B6
Details: with snrpa_human SNRPA

Row | effect of a mutation on the interaction | Variant
10 | with no effect | R145H

Variants of: B6
Details: with rbmx_human RBMX

Row | effect of a mutation on the interaction | Variant
11 | with no effect | R145H
